The test addresses T1, Ku70_1-250 mutant (N-terminal alpha/beta-domain of Ku70) with N-terminal GST-tag (human, UniProt P12956 1-250).
T1 construct: Ku70, human, residues 1-250 (N-terminal alpha/beta domain); also called Ku_1-250; Ku70 N-terminal domain; not shown: GST, N-terminal, kept
In words: pull-down; GST-pull-down: GST-Ku70 proteins (or GST) held on glutathione-agarose, His6-IN proteins as prey; buffer A (20 mM Hepes pH 7.5, 100 mM NaCl, 7.5 mM MgCl2, 2 mM 2-mercaptoethanol, 50 ug/ml BSA, 0.1% NP40), room temperature, Western blot; Kd from increasing IN at 50 nM Ku70 mutant. The following applies: both partners purified. For orientation: In western blotting, separated proteins are transferred to a membrane and probed.

T1 sequence (P12956 1-250, change not shown): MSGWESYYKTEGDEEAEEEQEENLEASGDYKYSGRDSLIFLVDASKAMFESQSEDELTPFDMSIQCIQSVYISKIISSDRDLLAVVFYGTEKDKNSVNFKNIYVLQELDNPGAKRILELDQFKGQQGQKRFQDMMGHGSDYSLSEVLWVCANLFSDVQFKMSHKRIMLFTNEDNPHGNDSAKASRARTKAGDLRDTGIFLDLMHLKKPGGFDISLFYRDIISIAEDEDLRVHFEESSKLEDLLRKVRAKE

B1: IN_1-220 (HIV-1 integrase with truncated C-terminal domain), N-terminal His6-tag (domain or fragment)
chain: FLDGIDKAQDEHEKYHSNWRAMASDFNLPPVVAKEIVASCDKCQLKGEAMHGQVDCSPGIWQLDCTHLEGKVILVAVHVASGYIEAEVIPAETGQETAYFLLKLAGRWPVKTIHTDNGSNFTGATVRAACWWAGIKQEFGIPYNPQSQGVVESMNKELKKIIGQVRDQAEHLKTAVQMAVFIHNFKRKGGIGGYSAGERIVDIIATDIQTKELQKQITKI
notes: not shown: His6, N-terminal, kept
What is called Kd is the concentration at which binding is half-saturated. Read a high Kd as a looser complex. Take B1: binding was characterised by a dissociation constant (Kd) of 120 ± 30 nM.
